In IntAct's records for PubMed 10801818:

B1: Zyxin (Homo sapiens), Q15942 (parent)
chain: MAAPRPSPAISVSVSAPAFYAPQKKFGPVVAPKPKVNPFRPGDSEPPPAPGAQRAQMGRVGEIPPPPPEDFPLPPPPLAGDGDDAEGALGGAFPPPPPPIEESFPPAPLEEEIFPSPPPPPEEEGGPEAPIPPPPQPREKVSSIDLEIDSLSSLLDDMTKNDPFKARVSSGYVPPPVATPFSSKSSTKPAAGGTAPLPPWKSPSSSQPLPQVPAPAQSQTQFHVQPQPQPKPQVQLHVQSQTQPVSLANTQPRGPPASSPAPAPKFSPVTPKFTPVASKFSPGAPGGSGSQPNQKLGHPEALSAGTGSPQPPSFTYAQQREKPRVQEKQHPVPPPAQNQNQVRSPGAPGPLTLKEVEELEQLTQQLMQDMEHPQRQNVAVNELCGRCHQPLARAQPAVRALGQLFHIACFTCHQCAQQLQGQQFYSLEGAPYCEGCYTDTLEKCNTCGEPITDRMLRATGKAYHPHCFTCVVCARPLEGTSFIVDQANRPHCVPDYHKQYAPRCSVCSEPIMPEPGRDETVRVVALDKNFHMKCYKCEDCGKPLSIEADDNGCFPLDGHVLCRKCHTARAQT

Variants of: B1
Conditions: with enah_human ENAH

Variant	effect of a mutation on the interaction
F71A	decreasing interaction
F71A;F93A	decreasing interaction
F93A	decreasing interaction
F71A;F93A;F104A	decreasing interaction

Variants of: B1
Conditions: with enah_mouse Enah

Variant	effect of a mutation on the interaction
F71A	disrupting interaction
